# Test results taken from the supplement of paper PMC10567573.
# B1: TPD52L2 (parent)
# chain: EAEEEELRAELTKVEEEIVTLRQV
# Variants of: B1
# Test: protein stability index of a GFP-peptide fusion (GPS, HEK-293T) (PSI 1-6); higher = more stable
# Conditions: c terminus: a fixed tail appended
# 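Note: lentivirally expressed fusions sorted by FACS into six bins by GFP to DsRed ratio, PSI derived from sequencing read proportions per bin multiplied by bin number.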
row,Variant,protein stability index
1,EAEEEELRVELTKVEEEIVTLRQV,3.74
2,EAEEEELRFELTKVEEEIVTLRQV,2.4
3,EAEEEELRTELTKVEEEIVTLRQV,3.67
4,EAEEEELRGELTKVEEEIVTLRQV,4.9
5,EAEEEELRSELTKVEEEIVTLRQV,4.32
6,EAEEEELRYELTKVEEEIVTLRQV,3.44
7,EAEEEELRWELTKVEEEIVTLRQV,2.51
8,EAEEEELRIELTKVEEEIVTLRQV,2.37
9,EAEEEELRNELTKVEEEIVTLRQV,3.79
10,EAEEEELRRELTKVEEEIVTLRQV,3.64
11,EAEEEELRCELTKVEEEIVTLRQV,3.98
12,EAEEEELREELTKVEEEIVTLRQV,4.34
13,EAEEEELRLELTKVEEEIVTLRQV,2.62
14,EAEEEELRHELTKVEEEIVTLRQV,2.82
15,EAEEEELRPELTKVEEEIVTLRQV,5.11
16,EAEEEELRKELTKVEEEIVTLRQV,3.68
17,EAEEEELRMELTKVEEEIVTLRQV,2.95
18,EAEEEELRDELTKVEEEIVTLRQV,3.93
19,EAEEEELRQELTKVEEEIVTLRQV,4
20,EAEEEEYRAELTKVEEEIVTLRQV,5.29
21,EAEEEEGRAELTKVEEEIVTLRQV,5.14
22,EAEEEEFRAELTKVEEEIVTLRQV,5.23
23,EAEEEEWRAELTKVEEEIVTLRQV,4.92
24,EAEEEEIRAELTKVEEEIVTLRQV,5.39

row,Variant,protein stability index
1,EAEEEEKRAELTKVEEEIVTLRQV,5.49
2,EAEEEEPRAELTKVEEEIVTLRQV,5.55
3,EAEEEEARAELTKVEEEIVTLRQV,5.44
4,EAEEEEMRAELTKVEEEIVTLRQV,5.21
5,EAEEEERRAELTKVEEEIVTLRQV,5.49
6,EAEEEEVRAELTKVEEEIVTLRQV,5.77
7,EAEEEENRAELTKVEEEIVTLRQV,5.41
8,EAEEEEDRAELTKVEEEIVTLRQV,5.5
9,EAEEEEQRAELTKVEEEIVTLRQV,5.62
10,EAEEEEERAELTKVEEEIVTLRQV,5.74
11,EAEEEECRAELTKVEEEIVTLRQV,4.93
12,EAEEEEHRAELTKVEEEIVTLRQV,5.2
13,EAEEEESRAELTKVEEEIVTLRQV,5.58
14,EAEEEETRAELTKVEEEIVTLRQV,5.39
15,EAEEELLRAELTKVEEEIVTLRQV,2.8
16,EAEEENLRAELTKVEEEIVTLRQV,3.15
17,EAEEEMLRAELTKVEEEIVTLRQV,2.08
18,EAEEEKLRAELTKVEEEIVTLRQV,3
19,EAEEEVLRAELTKVEEEIVTLRQV,3.81
20,EAEEEQLRAELTKVEEEIVTLRQV,3.46
21,EAEEESLRAELTKVEEEIVTLRQV,3.12
22,EAEEETLRAELTKVEEEIVTLRQV,3.58
23,EAEEEHLRAELTKVEEEIVTLRQV,2.91
24,EAEEEWLRAELTKVEEEIVTLRQV,2.62

row,Variant,protein stability index
1,EAEEEPLRAELTKVEEEIVTLRQV,4.32
2,EAEEEYLRAELTKVEEEIVTLRQV,3.08
3,EAEEEFLRAELTKVEEEIVTLRQV,2.68
4,EAEEEDLRAELTKVEEEIVTLRQV,2.98
5,EAEEEILRAELTKVEEEIVTLRQV,3.62
6,EAEEEGLRAELTKVEEEIVTLRQV,2.73
7,EAEEERLRAELTKVEEEIVTLRQV,3.23
8,EAEEEALRAELTKVEEEIVTLRQV,3.06
9,EAEEECLRAELTKVEEEIVTLRQV,2.51
10,EAEEEELRADLTKVEEEIVTLRQV,4.36
11,EAEEEELRAFLTKVEEEIVTLRQV,3.64
12,EAEEEELRARLTKVEEEIVTLRQV,4.11
13,EAEEEELRAILTKVEEEIVTLRQV,2
14,EAEEEELRALLTKVEEEIVTLRQV,2.96
15,EAEEEELRAPLTKVEEEIVTLRQV,5.46
16,EAEEEELRASLTKVEEEIVTLRQV,3.49
17,EAEEEELRAGLTKVEEEIVTLRQV,5.34
18,EAEEEELRACLTKVEEEIVTLRQV,4.84
19,EAEEEELRAQLTKVEEEIVTLRQV,3.98
20,EAEEEELRATLTKVEEEIVTLRQV,3.21
21,EAEEEELRAVLTKVEEEIVTLRQV,2.72
22,EAEEEELRAMLTKVEEEIVTLRQV,3.3
23,EAEEEELRAHLTKVEEEIVTLRQV,4.38
24,EAEEEELRAKLTKVEEEIVTLRQV,4.91

row,Variant,protein stability index
1,EAEEEELRAYLTKVEEEIVTLRQV,4.05
2,EAEEEELRAALTKVEEEIVTLRQV,3.05
3,EAEEEELRANLTKVEEEIVTLRQV,4.91
4,EAEEEELNAELTKVEEEIVTLRQV,4.51
5,EAEEEELWAELTKVEEEIVTLRQV,2.59
6,EAEEEELMAELTKVEEEIVTLRQV,3.79
7,EAEEEELHAELTKVEEEIVTLRQV,3.91
8,EAEEEELQAELTKVEEEIVTLRQV,3.96
9,EAEEEELVAELTKVEEEIVTLRQV,3.97
10,EAEEEELDAELTKVEEEIVTLRQV,4.91
11,EAEEEELTAELTKVEEEIVTLRQV,5.17
12,EAEEEELCAELTKVEEEIVTLRQV,4.16
13,EAEEEELKAELTKVEEEIVTLRQV,4.59
14,EAEEEELAAELTKVEEEIVTLRQV,4.23
15,EAEEEELGAELTKVEEEIVTLRQV,4.55
16,EAEEEELPAELTKVEEEIVTLRQV,5.43
17,EAEEEELSAELTKVEEEIVTLRQV,4.79
18,EAEEEELFAELTKVEEEIVTLRQV,3.66
19,EAEEEELLAELTKVEEEIVTLRQV,3.6
20,EAEEEELIAELTKVEEEIVTLRQV,3.83
21,EAEEEELYAELTKVEEEIVTLRQV,3.41
22,EAEEEELEAELTKVEEEIVTLRQV,4.84
23,EAEYEELRAELTKVEEEIVTLRQV,2.25
24,EAEEEELRAELTKIEEEIVTLRQV,3.57

row,Variant,protein stability index
1,EAEEEELRAELTKFEEEIVTLRQV,5.01
2,EAEEEELRAELTKDEEEIVTLRQV,4.74
3,EAEEEELRAELTKNEEEIVTLRQV,5.33
4,EAEEEELRAELTKQEEEIVTLRQV,5.59
5,EAEEEELRAELTKMEEEIVTLRQV,4.43
6,EAEEEELRAELTKKEEEIVTLRQV,5.72
7,EAEEEELRAELTKHEEEIVTLRQV,5.7
8,EAEEEELRAELTKSEEEIVTLRQV,4.42
9,EAEEEELRAELTKEEEEIVTLRQV,5.67
10,EAEEEELRAELTKLEEEIVTLRQV,3.82
11,EAEEEELRAELTKGEEEIVTLRQV,3.76
12,EAEEEELRAELTKCEEEIVTLRQV,3.54
13,EAEEEELRAELTKAEEEIVTLRQV,4.05
14,EAEEEELRAELTKREEEIVTLRQV,5.35
15,EAEEEELRAELTKPEEEIVTLRQV,5.75
16,EAEEEELRAELTKTEEEIVTLRQV,4.37
17,EAEEQELRAELTKVEEEIVTLRQV,3.35
18,EAEELELRAELTKVEEEIVTLRQV,2.64
19,EAEEAELRAELTKVEEEIVTLRQV,2.3
20,EAEEFELRAELTKVEEEIVTLRQV,2.34
21,EAEENELRAELTKVEEEIVTLRQV,2.28
22,EAEEDELRAELTKVEEEIVTLRQV,3.91
23,EAEESELRAELTKVEEEIVTLRQV,2.35
24,EAEETELRAELTKVEEEIVTLRQV,2.71

row,Variant,protein stability index
1,EAEEIELRAELTKVEEEIVTLRQV,2.98
2,EAEEKELRAELTKVEEEIVTLRQV,2.75
3,EAEEVELRAELTKVEEEIVTLRQV,1.62
4,EAEEGELRAELTKVEEEIVTLRQV,2.97
5,EAEERELRAELTKVEEEIVTLRQV,2.89
6,EAEECELRAELTKVEEEIVTLRQV,2.46
7,EAEEYELRAELTKVEEEIVTLRQV,3.06
8,EAEEPELRAELTKVEEEIVTLRQV,4.18
9,EAEEWELRAELTKVEEEIVTLRQV,2.42
10,EAEEMELRAELTKVEEEIVTLRQV,2.48
11,EAEEHELRAELTKVEEEIVTLRQV,2.44
12,EAEEEELRAEYTKVEEEIVTLRQV,5.51
13,EAEEEELRAEDTKVEEEIVTLRQV,5.92
14,EAEEEELRAEATKVEEEIVTLRQV,5.8
15,EAEEEELRAEHTKVEEEIVTLRQV,5.43
16,EAEEEELRAERTKVEEEIVTLRQV,5.22
17,EAEEEELRAEFTKVEEEIVTLRQV,5.09
18,EAEEEELRAEVTKVEEEIVTLRQV,5.2
19,EAEEEELRAEITKVEEEIVTLRQV,4.98
20,EAEEEELRAEKTKVEEEIVTLRQV,5.55
21,EAEEEELRAEPTKVEEEIVTLRQV,5.64
22,EAEEEELRAEGTKVEEEIVTLRQV,5.38
23,EAEEEELRAETTKVEEEIVTLRQV,5.33
24,EAEEEELRAENTKVEEEIVTLRQV,5.25

row,Variant,protein stability index
1,EAEEEELRAEQTKVEEEIVTLRQV,5.67
2,EAEEEELRAEMTKVEEEIVTLRQV,3.99
3,EAEEEELRAEETKVEEEIVTLRQV,4.83
4,EAEEEELRAECTKVEEEIVTLRQV,5.5
5,EAEEEELRAESTKVEEEIVTLRQV,5.65
6,EAEEEELRAEWTKVEEEIVTLRQV,5
7,EAEEEELRAELTFVEEEIVTLRQV,4.25
8,EAEEEELRAELTPVEEEIVTLRQV,5.55
9,EAEEEELRAELTMVEEEIVTLRQV,4.18
10,EAEEEELRAELTQVEEEIVTLRQV,4.55
11,EAEEEELRAELTSVEEEIVTLRQV,4.54
12,EAEEEELRAELTVVEEEIVTLRQV,4.33
13,EAEEEELRAELTYVEEEIVTLRQV,4.08
14,EAEEEELRAELTNVEEEIVTLRQV,5.26
15,EAEEEELRAELTWVEEEIVTLRQV,4.21
16,EAEEEELRAELTGVEEEIVTLRQV,5.18
17,EAEEEELRAELTIVEEEIVTLRQV,3.5
18,EAEEEELRAELTTVEEEIVTLRQV,5.15
19,EAEEEELRAELTHVEEEIVTLRQV,5.04
20,EAEEEELRAELTRVEEEIVTLRQV,3.27
21,EAEEEELRAELTCVEEEIVTLRQV,5.11
22,EAEEEELRAELTDVEEEIVTLRQV,5.76
23,EAEEEELRAELTEVEEEIVTLRQV,5.82
24,EAEEEELRAELTLVEEEIVTLRQV,4.06

row,Variant,protein stability index
1,EAEEEELRAELTAVEEEIVTLRQV,3.96
2,EAEEEELRAELRKVEEEIVTLRQV,3.12
3,EAEEEELRAELEKVEEEIVTLRQV,4.22
4,EAEEEELRAELAKVEEEIVTLRQV,3.35
5,EAEEEELRAELHKVEEEIVTLRQV,3.51
6,EAEEEELRAELQKVEEEIVTLRQV,3.87
7,EAEEEELRAELFKVEEEIVTLRQV,3.83
8,EAEEEELRAELMKVEEEIVTLRQV,2.65
9,EAEEEELRAELPKVEEEIVTLRQV,5.06
10,EAEEEELRAELIKVEEEIVTLRQV,3.51
11,EAEEEELRAELGKVEEEIVTLRQV,4.8
12,EAEEEELRAELKKVEEEIVTLRQV,3.75
13,EAEEEELRAELLKVEEEIVTLRQV,3.08
14,EAEEEELRAELWKVEEEIVTLRQV,2.1
15,EAEEEELRAELVKVEEEIVTLRQV,4.06
16,EAEEEELRAELSKVEEEIVTLRQV,3.75
17,EAEEEELRAELYKVEEEIVTLRQV,3.39
18,EAEEEELRAELDKVEEEIVTLRQV,4.91
19,EAEEEELRAELCKVEEEIVTLRQV,3.63
20,EAEEEELRAELNKVEEEIVTLRQV,3.9
